One molecule from patent publication US20220073631A1 (QYUNS THERAPEUTICS, published 2022) can be followed below.

The target of test [1] is IL-4Rα on human cells (HEK Blue IL-4/IL-13, A549, TF-1, HFL-1, PBMCs) (human, UniProt P24394 26-825). The experiment in a line: cell-based or functional assay.
For test [2], the target named is T1, extracellular domain of marmoset IL-4Rα (Gly 24-His 232) with C-terminus his-tag (marmoset).
T1 construct: range 24-232; Made in HEK 293F cells and purified on nickel
The experiment in a line: SPR, Biacore T200, by the methods of Example 2. (In general: Surface plasmon resonance follows binding to a sensor surface in real time, without labels.)

The target in the next test is T2, hIL-4Rα-Mu241 (human, UniProt P24394 26-232).
T2 construct: Printed positions fit the mature protein; also called D67A/V68R/V69F; not shown: C-terminal his-tag
T2 chain: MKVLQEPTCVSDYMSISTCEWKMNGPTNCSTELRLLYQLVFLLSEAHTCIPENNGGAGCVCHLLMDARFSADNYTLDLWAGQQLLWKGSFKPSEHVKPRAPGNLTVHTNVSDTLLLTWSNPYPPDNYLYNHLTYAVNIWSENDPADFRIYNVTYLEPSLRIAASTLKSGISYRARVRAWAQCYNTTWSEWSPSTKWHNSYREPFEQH
Description: SPR, Biacore T200, by the methods of Example 2. On the procedure:
(§1) The protein A was chemically coupled to a CM5 chip, and an appropriate amount of the antibody was immobilized by a capture method such that the Rmax was less than 50 RU and the flow rate for the capture was 10 μl/min. The antigen was subject to gradient dilution, and the flow rate in the instrument was switched to 30 μl/min. The antigen was flowed through the reference channel and the channel with the immobilized antibody sequentially in an ascending order of concentration, and the running buffer was flowed through as a negative control. After each binding and dissociation was complete, the chip was regenerated with glycine, pH 1.5. Fitting was performed with the build-in software in the instrument according to a 1:1 binding model. The binding rate constant kₐ, the dissociation rate constant kd, and the equilibrium dissociation constant KD values of the antibody were calculated. Dupilumab was obtained by purchasing a commercially available medicine.
(§2) To further narrow down the key amino acids that PD2-31 binds to, multiple mutants of hIL-4Rα were designed in Loop 2 (V40FLLSEA46) and Loop 3 (M65[…]73) (Table 2). The wild-type hIL-4Rα (hIL-4Rα-ECD) and hIL-4Rα mutants were prepared using standard techniques. Briefly, the expression plasmids containing the extracellular domain of wild-type hIL-4Rα and different mutated hIL-4Rα were constructed and transfected into HEK 293F cells. After expression, the extracellular domain of wild-type hIL-4Rα and hIL-4Rα mutants with C-terminus his-tag were purified by Nickel chromatography. Purified proteins of wild-type hIL-4Rα and hIL-4Rα mutants were analyzed for interaction with PD2-31 and Dupilumab. The interaction was studied by Biacore T200, according to the methods in Example 2.

The target of a further test is T3, hIL-4Rα-Mu244 (human, UniProt P24394 26-232).
T3 construct: Printed positions fit the mature protein; also called S70Q/A71L/D72R; not shown: C-terminal his-tag
T3 chain: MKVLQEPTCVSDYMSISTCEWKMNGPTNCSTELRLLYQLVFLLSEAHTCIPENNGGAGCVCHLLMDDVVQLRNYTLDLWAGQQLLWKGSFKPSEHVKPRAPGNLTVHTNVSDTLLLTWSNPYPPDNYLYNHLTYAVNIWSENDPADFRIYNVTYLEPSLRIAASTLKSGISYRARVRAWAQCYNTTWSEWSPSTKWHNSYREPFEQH
The experiment in a line: SPR, Biacore T200, by the methods of Example 2. The method, then: as §1, §2

The target in test [3] is T4, hIL-4Rα-ECD (wild-type hIL-4Rα extracellular domain with C-terminus his-tag) (human, UniProt P24394 26-232).
T4 construct: Made in HEK 293F cells and purified on nickel; not shown: C-terminal his-tag
Description: SPR, Biacore T200, by the methods of Example 2; mean of three experiments. The method, then:
as §1, §2

B1: QX005N (PD2-31) (antibody, V domains shown)
VH: EVQLVESGGGLVQPGGSLRLSCAASGIDLRTNSMSWVRQAPGKGLEWVGIIGSSGYMDYASWAKGRFTISRDNSKNTLYLQMNSLRAEDTAVYYCARHGDSSSFALWGQGTLVTVSS
VL: DIQMTQSPSSLSASVGDRVTITCRASESVYKNNRLSWYQQKPGKAPKLLIYEASKVASGVPSRFSGSGSGTDFTLTISSLQPEDFATYYCAGAYRGNIYPFGQGTKVEIK
notes: Humanized from rabbit clone #2, expressed as a full antibody in ExpiCHO-S cells (heavy chain 48.5 kDa, light chain 23.7 kDa)
What is called Kd is a measure of binding affinity in units of concentration. A high value points to lower affinity. A word on the koff: it is a measure of how fast the partners let go of each other. High values mean a short-lived complex, low ones a long-lived complex. Usually kon stands for a measure of how fast the partners come together. For B1, in test [1], the “IC50, IL-4-induced CCL-11 release activity in HFL-1 cells (FIG. 7(A))” value was 0.0431 µg/mL; the “IC50, IL-4-induced CCL-17 release activity in A549 cells (FIG. 5(A))” value amounted to 0.0326 µg/mL; the “IC50, IL-4-induced CCL-17 release activity in PBMCs (FIG. 9(A))” value came to 0.0248 µg/mL; the “IC50, IL-4-induced STAT6 phosphorylation activity in HEK Blue IL-4/IL-13 cells (FIG. 4(A))” value was determined as 0.00319 µg/mL. Also, in test [1], the “IC50, IL-4-induced proliferation activity of TF-1 cells (FIG. 6(A))” value turned out to be 0.0139 µg/mL; the “IC50, IL-13-induced CCL-11 release activity in HFL-1 cells (FIG. 7(C))” value came to 0.0385 µg/mL; the “IC50, IL-13-induced CCL-17 release activity in A549 cells (FIG. 5(C))” value came to 0.0289 µg/mL; the “IC50, IL-13-induced CCL-17 release activity in PBMCs (FIG. 9(C))” value was found to be 0.0686 µg/mL. Besides, in test [1], the “IC50, IL-13-induced STAT6 phosphorylation activity in HEK Blue IL-4/IL-13 cells (FIG. 4(C))” value turned out to be 0.00878 µg/mL and the “IC50, IL-13-induced proliferation activity of TF-1 cells (FIG. 6(C))” value worked out at 0.0155 µg/mL. For the same molecule, in test [2], the Kd was around 0.1 nM. In the test with hIL-4Rα-Mu241, binding was characterised by a dissociation constant (Kd) of 0.474 nM, the koff worked out at 6.59e-05 s⁻¹ and the kon is 139000 M⁻¹ s⁻¹. In the test with hIL-4Rα-Mu244, this molecule displayed a Kd of 1.1 nM, a koff of 0.000104 s⁻¹ and a kon of 94500 M⁻¹ s⁻¹. In addition, in test [3], the Kd was 0.169 nM, the koff was 0.000134 s⁻¹ and the on-rate constant (kon) came out at 779000 M⁻¹ s⁻¹.
